The text below walks through data of the Immune Epitope Database (IEDB).

The target of one test is HLA-A*01:01. Put plainly: IEDB peptide-MHC binding, purified MHC/competitive/radioactivity; filed as Kd, often an IC50 or EC50 that approximates it; ≥ and ≤ were set here for values at or beyond the usual limits of such assays.
A further test has as its target HLA-A*26:01. Described as above.
A further test concerns the target HLA-A*29:02. The test is described as above.
The target of another test is HLA-A*30:01. Described as above.
Another test addresses HLA-A*30:02. Described as above.
For the next test, the target named is HLA-A*32:01. Described as above.
The next test concerns the target HLA-B*08:01. Described as above.
For another test, the target named is HLA-B*07:02. The description is as above.
A further test deals with HLA-B*40:01. The description is as above.
A further test addresses HLA-B*44:03. The test is described as above.
Another test has as its target HLA-A*02:01. Described as above.
Another test addresses HLA-B*44:02. Described as above.
Another test deals with HLA-B*51:01. The test is described as above. The following applies: source organism: Dengue virus 1 Brazil/97-11/1997.
The target of the next test is HLA-A*23:01. The test is described as above. The following applies: source organism: Lymphocytic choriomeningitis virus (strain Armstrong).
Another test addresses HLA-A*24:02. Described as above. The following applies: source organism: Lymphocytic choriomeningitis virus (strain Armstrong).
The target in the next test is HLA-B*15:01. Description: IEDB peptide-MHC binding, purified MHC/direct/fluorescence; filed as Kd, often an IC50 or EC50 that approximates it; ≥ and ≤ were set here for values at or beyond the usual limits of such assays. The conditions noted are these: source organism: Yellow fever virus 1899/81.
The next test addresses HLA-B*46:01. The description is as above. The conditions noted are these: source organism: Yellow fever virus 1899/81.
Setting [1] is: source organism: Mammarenavirus brazilense.
Setting [2] is: source organism: Vaccinia virus WR.
The mark [3] stands for this setting: source organism: Dengue virus 1 Brazil/97-11/1997.
Setting [4] is: source organism: Dengue virus 2 Jamaica/1409/1983.
Where [5] appears, read: source organism: Dengue virus 4 Philippines/H241/1956.
Where [6] appears, read: source organism: Dengue virus 1 Singapore/S275/1990.
The mark [7] stands for this setting: source organism: Mammarenavirus choriomeningitidis.
[8] abbreviates: source organism: Lymphocytic choriomeningitis virus (strain Armstrong).

pKd: −log10 of the molar value.

Broadly, the pKd is the negative decadic logarithm of the Kd, by convention in mol/L. As to LLSEMLNKEY, the pKd with HLA-A*01:01 (setting [1]) is 6.35; in the test with HLA-A*26:01 (setting [1]) it was 4.80; with HLA-A*29:02 (setting [1]) it was 6.29; in the test with HLA-A*30:01 (setting [1]) it was 4.96; in the test with HLA-A*30:02 (setting [1]), 6.15; with HLA-A*32:01 (setting [1]), at most 4.41. As for LMGFRNSAL, the negative logarithm of the Kd (pKd) with HLA-B*08:01 (setting [2]) is 5.96.

As to LMTGTLAVFL, in the test with HLA-B*08:01 (setting [3]), the pKd was 5.77.

As to LNRRRRTAG, the pKd in the test with HLA-B*08:01 (setting [4]) is 6.13. With LPVCAPSSA, the negative logarithm of the Kd (pKd) with HLA-B*07:02 (source organism: Hepatitis B virus) was 6.94.

As for NEGIMAVGL, the pKd with HLA-B*40:01 (setting [5]) was 5.65; in the test with HLA-B*44:03 (setting [5]), 5.81. As for NPTTLTASL, in the test with HLA-B*07:02 (source organism: Dengue virus 4 Dominica/814669/1981), the pKd is 7.24. Consider NRRKRSVTM, for which the negative logarithm of the Kd (pKd) in the test with HLA-B*08:01 (setting [3]) is 8.17. For the sequence PNERRAWNFL, the pKd in the test with HLA-A*32:01 (setting [5]) was at most 4.60. For the sequence RVIEVLQRA, the pKd with HLA-A*02:01 (source organism: HIV-1 M:B_MN) was 7.60.

In the case of SAVPVDWVPT, the pKd in the test with HLA-A*32:01 (setting [3]) was 4.73. As to SEGIFSPSEL, the pKd was 8.25 in the test with HLA-B*40:01 (setting [6]), 7.18 in the test with HLA-B*44:02 (setting [6]) and 7.11 with HLA-B*44:03 (setting [6]).

For SKKTRISDL, the pKd with HLA-B*08:01 (source organism: Cowpox virus) was 8.56. With SLGCKPLTM, in the test with HLA-B*08:01 (setting [6]), the pKd was 6.77. Take SLLRKFLYC: in the test with HLA-B*08:01 (setting [2]), the pKd was 6.15. For the sequence SLQQRLEDL, the pKd with HLA-B*08:01 (setting [2]) was 6.80.

On to SLSAVSVHI, for which, in the test with HLA-A*32:01 (setting [2]), the pKd was 7.47. For SMFTLRHII, the values for the pKd in the test with HLA-A*32:01 (setting [2]) and in the test with HLA-B*08:01 (setting [2]) were 7.08 and 8.74, respectively.

For SPMGKLTFF, the pKd with HLA-B*08:01 (setting [2]) was 6.58. Regarding TPMLRHSIEN, the pKd in the test with HLA-B*07:02 (setting [4]) is 6.29. TPQDNQLAYV: the pKd is 6.48 with HLA-B*07:02 (setting [3]) and 4.84 with HLA-B*51:01. For the sequence TTDVKAAVI, the pKd with HLA-A*01:01 (setting [7]) was 6.02; with HLA-A*26:01 (setting [7]) it was at most 4.11; with HLA-A*29:02 (setting [7]), 4.98; with HLA-A*30:01 (setting [7]), at most 4.14; with HLA-A*30:02 (setting [7]), at most 4.63; with HLA-A*32:01 (setting [7]), at most 4.11. In the case of TTWALCESI, the pKd with HLA-A*32:01 (setting [3]) was 6.53. For the sequence VCLSGEGWPY, the pKd in the test with HLA-A*23:01 is at most 4.15; in the test with HLA-A*24:02, at most 4.15; in the test with HLA-A*26:01 (setting [8]), at most 4.16; in the test with HLA-A*30:01 (setting [8]), at most 4.48; in the test with HLA-A*32:01 (setting [8]), at most 4.58. VEMGEAAGIF: the pKd in the test with HLA-B*40:01 (setting [4]) was 5.94; with HLA-B*44:02 (setting [4]), 7.41; with HLA-B*44:03 (setting [4]), 6.23. VLQQSTYQL: in the test with HLA-A*02:01 (source organism: Triticum aestivum), the pKd is 7.24. As to VYMDAVFEY, the results for the pKd in the test with HLA-B*15:01 and with HLA-B*46:01 were 6.22 and at most 4.70, respectively. In the case of WELVDKERNL, the pKd with HLA-B*40:01 (source organism: Dengue virus 2 Peru/IQT2913/1996) is 6.65. Regarding WELVDRERNL, the pKd in the test with HLA-B*40:01 (setting [4]) was 6.94. Regarding YLLSLFSTL, the pKd in the test with HLA-B*08:01 (setting [2]) is 8.40. Regarding YLMLLFAAM, the pKd in the test with HLA-B*08:01 (setting [2]) was 6.86.

In the case of YLRTKPASA, in the test with HLA-B*08:01 (setting [2]), the negative logarithm of the Kd (pKd) is 8.83.
